Measurements taken from the supplement of paper PMC10567573.

B1: TBX6 (parent)
chain: AFLELPHGSGGSGYPAAPPAVPFA
B2: TEKT4 (parent)
chain: YARYHQAFADRDQSERQRHESQQL

Variants of: B1
Assay: protein stability index of a GFP-peptide fusion (GPS, HEK-293T) (PSI 1-6); higher = more stable
Details: c terminus: a fixed tail appended
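Note: lentivirally expressed fusions sorted by FACS into six bins by GFP to DsRed ratio, PSI derived from sequencing read proportions per bin multiplied by bin number.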

Variant	protein stability index
A1I	2.67
A1M	1.61
A1F	1.89
A1R	2.58
A1H	3.13
A1S	2.08
A1E	3.11
A1G	2.84
A1Q	2.77
A1D	2.83
A1T	2.71
A1L	2.07
A1C	1.41
A1W	1.89
A1Y	2.21
A1K	3.26
A1V	1.78
A1N	2.83
A1P	2.94
L3S	2.87
L3H	3.19
L3I	2.28
L3Q	3.43
L3F	2.68
L3D	3.96
L3P	4.08
L3R	3.47
L3M	2.41

Variant	protein stability index
L3K	3.45
L3T	3.23
L3C	2.7
L3E	3.66
L3A	3.14
L3V	2.93
L3G	3.43
L3N	3.57
F2L	3.08
F2P	4.04
F2K	3.76
F2M	2.83
F2S	3.63
F2H	3.88
F2G	3.33
F2R	3.22
F2D	3.93
F2N	4.05
F2V	3.2
F2Y	2.82
F2E	4.25
F2Q	3.65
F2W	2.11
F2A	3.45
F2T	3.49
F2I	2.94
F2C	3.58

Variants of: B2
Assay: as above
Details: c terminus: a fixed tail appended

Variant	protein stability index
L24R	1.68
L24V	1.57
L24Y	2.12
L24A	1.88
L24G	2.37
L24F	2.37
L24M	2.21
L24E	2.24
L24Q	2.57
L24I	2.03
L24W	1.85
L24P	1.64
Y1T	4.62
Y1W	3.69
Y1H	4.54
Y1S	4.87
Y1K	4.76
Y1E	5
Y1G	5.11
Y1M	4.44
Y1Q	4.76
Y1I	4.55
Y1C	3.46
Y1F	2.07
Y1V	4.91
Y1D	5.23

Variant	protein stability index
Y1L	4.55
H19W	1.94
H19A	2.11
H19S	2.25
H19Y	1.61
H19G	2.64
H19K	2.63
H19T	1.97
H19F	1.48
H19M	2.35
E20M	1.74
E20F	1.76
E20P	2.23
E20Q	1.53
E20S	2.3
E20Y	2.06
E20N	2.18
E20T	2.27
E20G	2.19
E20V	2.21
Q13L	2.49
Q13F	1.83
Q13D	2.35
Q13I	2.35
Q13R	1.88
Q13P	2.36

Variant	protein stability index
Q13G	2.08
Q13K	1.91
Q13N	2.22
Q13M	1.64
Q13E	1.74
Q13C	2.13
D10M	1.97
D10F	1.99
D10C	2.36
D10V	2.32
D10T	1.85
D10I	2.58
D10A	1.8
D10S	2.49
D10L	2.29
D10R	2.77
A9Y	2.89
A9S	2.48
A9P	3.9
A9N	3.09
A9H	3.21
A9R	2.35
A9Q	2.98
A9D	3.86
A9E	3.57
H5C	2.39

Variant	protein stability index
H5T	3.6
H5Q	2.98
H5I	3.29
H5A	1.91
H5E	4.54
H5L	3.47
H5M	3.43
H5K	2.88
H5S	2.16
H5N	2.3
H5F	2.5
H5D	4.57
Q6R	2.26
Q6H	2.25
Q6Y	2.54
Q6A	1.62
Q6V	2.69
Q6N	2.28
Q6T	2.34
Q6F	3.06
Q6K	2.31
Q6C	2.02
S14A	1.88
S14R	1.63
S14M	1.79
S14L	2.72

Variant	protein stability index
S14N	2.21
S14C	1.46
S14P	3.2
S14W	1.71
S14T	2.37
S14D	2.76
S14E	2.59
S14Y	2.07
S14F	1.48
S14H	1.99
S14I	2.16
R3E	2.06
R3F	2.38
R3V	3.11
R3G	1.98
R3M	2.6
R3S	2.36
R3Y	2.88
R3I	3.4
R3P	1.6
R3C	2.84
R3W	2.2
R3N	2.79
R11M	2.54
R11S	2.64
R11E	3.29

Variant	protein stability index
R11Q	3.07
R11A	2.4
R11N	2.83
R11C	2.14
R11V	2.12
R11H	2.32
R11K	2.46
R11G	2.82
R11D	3.59
Q17I	2.34
Q17Y	2.72
Q17N	1.68
Q17P	2.11
Q17V	2.31
Q17G	1.87
Q17A	2
Q17D	2.21
Q17T	2
Q17S	1.87
Q17L	2.32
Q17E	1.63
Q17R	1.94
Q23P	1.92
Q23A	1.84
Q23W	1.7
Q23Y	2.19

Variant	protein stability index
Q23V	1.68
Q23C	2.11
Q23D	2.37
Q23N	1.91
Q23G	2.01
Q23H	2.34
Q23I	1.66
Q23E	1.97
Q23L	2.63
Q23R	2.65
Y4D	3.46
Y4H	2.36
Y4L	2.92
Y4E	4.1
Y4T	2.8
Y4K	3.78
Y4N	2.99
Y4W	1.6
Y4C	2.39
Y4R	3.81
Y4I	3.32
Y4F	2.12
Y4Q	3.85
S21K	1.46
S21H	1.99
S21T	3.06

Variant	protein stability index
S21D	1.78
S21N	1.98
S21R	2.46
S21A	2.01
S21G	2.32
S21V	2.16
S21I	2.41
F8P	4.75
F8G	3.83
F8L	4.72
F8I	4.31
F8R	3.73
F8A	4.75
F8T	3.66
F8C	3.97
F8H	4.58
D12H	2.15
D12T	2.12
D12Y	1.86
D12W	2.99
D12M	1.7
D12N	1.93
D12F	1.85
D12R	1.44
D12S	1.67
D12P	1.57

Variant	protein stability index
D12V	2.06
D12L	1.98
D12I	2.58
E15I	1.52
E15P	1.8
E15H	1.75
E15F	2.76
E15S	1.76
E15L	2.18
E15N	2.35
E15K	1.73
E15G	1.9
E15Y	1.09
E15C	2.36
R16K	1.93
R16C	2.63
R16L	3.1
R16P	2.08
R16G	2.48
R16I	2.2
R16T	2.26
R16W	2.07
R16E	2.43
R16A	2.35
A7C	2.88
A7H	2.2

Variant	protein stability index
A7R	3.5
A7G	3.18
A7N	3.07
A7P	3.56
A7I	1.81
A7W	2.02
A7V	2.06
A7K	3.25
A7F	2.99
A7Y	1.69
Q22F	1.9
Q22G	1.85
Q22H	2.36
Q22P	2.17
Q22C	1.57
Q22W	1.43
Q22M	2.2
Q22N	2.1
Q22V	1.79
Q22T	1.63
Q22I	1.66
Q22A	1.8
Q22L	1.82
R18N	2.01
R18D	2.36
R18P	2.26

Variant	protein stability index
R18L	2.18
R18E	2.2
R18M	1.78
R18Y	2.82
R18C	2.6
R18H	2.81
R18F	2.23
R18A	1.9
R18V	2.31
R18W	2.01
R18I	2.15
A2D	4.3
A2M	2.27
A2W	2.68
A2Y	3.58
A2Q	1.84
A2R	4.27
A2L	2.09
A2C	1.48
